Earlier results in article PMC10671529.

Experiments:
HigB2 (Vibrio cholerae) = HigB2 (Vibrio cholerae) (UniProt Q9KMA6)
Im9 (Escherichia coli) = Im9 (Escherichia coli) (UniProt P13479)
Chain of UniProt P13479 (P13479 whole entry): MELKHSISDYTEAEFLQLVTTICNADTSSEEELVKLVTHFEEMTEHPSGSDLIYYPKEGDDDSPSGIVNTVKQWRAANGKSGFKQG

Chain of UniProt Q9KMA6 (Q9KMA6 whole entry): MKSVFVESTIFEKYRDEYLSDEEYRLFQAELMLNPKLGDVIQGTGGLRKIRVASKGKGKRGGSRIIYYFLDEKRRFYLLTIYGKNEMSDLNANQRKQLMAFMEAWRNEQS

For HigA2 (from UniProt Q9KMA5), the Kd (HigB2 (Vibrio cholerae)) is listed as 3.1 pM.
For colicin E9 DNase (from UniProt P09883), the Kd (Im9 (Escherichia coli)) is given as 0.023 pM.
